# Assay results as given in patent publication US20130150294A1.
# What was measured:
# [1] = target: EYFP-rat α1 (rat) (UniProt P06685); experiment: FRET by acceptor photobleaching, 16 LLC-PK1 cells in six experiments
# [2] = target: EYFP-rat α1 mutant (D371E) (rat) (UniProt P06685); experiment: FRET by acceptor photobleaching, 20 TCN23-19 cells in three experiments
substance,measurement,setting,value
Src-ECFP,FRET efficiency,[1],8.1 to 18.8
same,FRET efficiency (mean),[1],13.2
same,FRET efficiency,[2],10.4 to 15.6
same,FRET efficiency (mean),[2],13.2
